Laboratory results reported in PMC6441019, “Prospective discovery of small molecule enhancers of an E3 ligase-substrate interaction” (Nature Communications, 2019).
Where a SMILES comes first, the peptide text is derived from it. Where no end group is shown, it is not given here. [ ]: non-standard residue; d: D form. The star is where a group is joined. pS = N[C@@H](COP(=O)(O)O)C(=O)O; Cbz = O=C(OCc1ccccc1)*

How the values were obtained:
[1] = Solubility (qualitative remark); assay type: physicochemical
[2] = target: T1, pSer33/S37A β-catenin peptide binding to β-TrCP (Homo sapiens, UniProt P35222+Q9Y297, S37A); assay: TR-FRET binding enhancement assay, pSer33/S37A peptide
T1 construct: titrating BODIPY-FL-labeled β-catenin peptides (residues 17-48) against 300 pM β-TrCP; 6xHis-SMT3 (N, cleaved yes); made in house; host or cells: E. coli (co-expressed with BirA)
T1 sequence (Q9Y297 1-569 isoform Q9Y297-2, stated change not applied): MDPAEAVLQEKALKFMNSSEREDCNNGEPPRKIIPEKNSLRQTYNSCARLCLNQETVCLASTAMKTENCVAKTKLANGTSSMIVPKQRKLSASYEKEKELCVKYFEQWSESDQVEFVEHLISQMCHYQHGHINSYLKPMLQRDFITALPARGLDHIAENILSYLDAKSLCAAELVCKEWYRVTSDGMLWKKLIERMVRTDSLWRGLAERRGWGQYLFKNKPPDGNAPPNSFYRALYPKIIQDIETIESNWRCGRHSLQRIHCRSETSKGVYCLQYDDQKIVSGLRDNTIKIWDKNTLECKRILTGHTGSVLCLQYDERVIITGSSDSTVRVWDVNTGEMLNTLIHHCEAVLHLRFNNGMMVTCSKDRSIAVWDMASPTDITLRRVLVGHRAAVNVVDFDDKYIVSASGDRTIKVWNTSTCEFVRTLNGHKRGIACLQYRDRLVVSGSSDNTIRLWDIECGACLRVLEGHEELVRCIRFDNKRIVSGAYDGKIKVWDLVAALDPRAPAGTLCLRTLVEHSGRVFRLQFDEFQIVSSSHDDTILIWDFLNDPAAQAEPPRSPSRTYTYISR
T1 sequence (P63208 whole entry partner, the tested form may be a part): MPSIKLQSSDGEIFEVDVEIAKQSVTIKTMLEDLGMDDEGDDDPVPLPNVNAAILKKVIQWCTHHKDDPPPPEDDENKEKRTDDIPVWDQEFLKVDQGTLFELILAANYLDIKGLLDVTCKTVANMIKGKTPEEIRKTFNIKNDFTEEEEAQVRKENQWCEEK
T1 sequence (P35222 17-48 S37A limits assumed): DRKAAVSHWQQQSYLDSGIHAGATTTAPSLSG
Experimental: (§1) Compounds were incubated in a 20 μl reaction volume with 300 pM biotinylated β-TrCP/Skp1 preincubated with 1.2 nM terbium-coupled streptavidin (Cisbio) and BODIPY-FL labeled β-catenin peptides (see figure legends for peptide details) in a white 384-well microplate (Perkin Elmer ProxiPlate), using a PBS buffer containing 0.01% Triton X-100 and 2 mM DTT with 2% final DMSO. […] Following 1-h incubation, plates were read for TR-FRET signal after excitation at 320 nm and read at 520 and 620 nm using an EnVision plate reader (Perkin Elmer). TR-FRET signal was calculated using a 520/620 nm ratio. Binding and enhancement data were fit to a standard Hill equation (Y = Bmin + (Bmax − Bmin)(X^h)/(X^h + EC50^h)) in Prism (GraphPad). Errors are standard error of the fit.

[3] = target: T2, S33E/S37A β-catenin peptide binding to β-TrCP (Homo sapiens, UniProt P35222+Q9Y297, S33E/S37A); assay: TR-FRET binding enhancement assay, S33E/S37A peptide; settings: 1% binding saturation
T2 construct: titrating BODIPY-FL-labeled β-catenin peptides (residues 17-48) against 300 pM β-TrCP; 6xHis-SMT3 (N, cleaved yes); made in house; host or cells: E. coli (co-expressed with BirA)
T2 sequence (Q9Y297 1-569 isoform Q9Y297-2, stated change not applied): as the sequence (Q9Y297 1-569 isoform Q9Y297-2, stated change not applied) above
T2 sequence (P63208 whole entry partner, the tested form may be a part): as the sequence (P63208 whole entry partner, the tested form may be a part) above
T2 sequence (P35222 17-48 S33E/S37A limits assumed): as the sequence (P35222 17-48 S37A limits assumed) above, with S17E counted along it
Experimental: as §1

[4] = target: Myc/FLAG-tagged S33E/S37A phosphomimetic full-length β-catenin (UniProt P35222)
[5] = target: T3, S33E/S37A mutant β-catenin (Homo sapiens, UniProt P35222+Q9Y297, S33E/S37A); assay: β-catenin degradation in HEK293T cells stably expressing S33E/S37A β-catenin; assay type: cell-based; settings: for effect of co-treatment on enhancer-induced degradation of S33E/S37A β-catenin: 5 μM MLN4924 or 10 μM MG132, added 30 min before NRX-252114
T3 construct: Full-length β-catenin (Myc/FLAG-tagged; Origene); expressed in transfected cells
T3 sequence (P35222 whole entry S33E/S37A, one chain of several): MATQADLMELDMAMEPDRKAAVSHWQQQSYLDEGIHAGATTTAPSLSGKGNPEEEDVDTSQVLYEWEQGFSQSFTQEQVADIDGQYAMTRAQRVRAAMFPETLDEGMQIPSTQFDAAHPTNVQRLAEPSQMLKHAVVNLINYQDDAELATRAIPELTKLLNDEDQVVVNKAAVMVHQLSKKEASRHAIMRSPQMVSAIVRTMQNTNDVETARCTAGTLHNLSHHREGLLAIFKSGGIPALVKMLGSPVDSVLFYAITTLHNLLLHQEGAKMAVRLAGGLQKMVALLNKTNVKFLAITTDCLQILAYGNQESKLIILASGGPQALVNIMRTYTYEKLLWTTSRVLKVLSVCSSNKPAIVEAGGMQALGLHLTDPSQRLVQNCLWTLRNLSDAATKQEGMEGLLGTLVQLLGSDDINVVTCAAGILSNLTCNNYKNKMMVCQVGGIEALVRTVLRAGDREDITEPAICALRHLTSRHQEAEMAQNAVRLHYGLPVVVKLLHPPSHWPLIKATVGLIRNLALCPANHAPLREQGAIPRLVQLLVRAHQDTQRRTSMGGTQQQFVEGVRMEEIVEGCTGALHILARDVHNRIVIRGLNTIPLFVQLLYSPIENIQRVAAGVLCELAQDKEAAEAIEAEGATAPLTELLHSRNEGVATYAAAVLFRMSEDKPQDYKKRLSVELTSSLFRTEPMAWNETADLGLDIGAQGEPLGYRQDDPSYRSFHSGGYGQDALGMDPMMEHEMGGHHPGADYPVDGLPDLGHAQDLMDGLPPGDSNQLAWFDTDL
T3 sequence (P63208 whole entry partner, one chain of several): as the sequence (P63208 whole entry partner, the tested form may be a part) above
T3 sequence (Q13616 whole entry partner, one chain of several): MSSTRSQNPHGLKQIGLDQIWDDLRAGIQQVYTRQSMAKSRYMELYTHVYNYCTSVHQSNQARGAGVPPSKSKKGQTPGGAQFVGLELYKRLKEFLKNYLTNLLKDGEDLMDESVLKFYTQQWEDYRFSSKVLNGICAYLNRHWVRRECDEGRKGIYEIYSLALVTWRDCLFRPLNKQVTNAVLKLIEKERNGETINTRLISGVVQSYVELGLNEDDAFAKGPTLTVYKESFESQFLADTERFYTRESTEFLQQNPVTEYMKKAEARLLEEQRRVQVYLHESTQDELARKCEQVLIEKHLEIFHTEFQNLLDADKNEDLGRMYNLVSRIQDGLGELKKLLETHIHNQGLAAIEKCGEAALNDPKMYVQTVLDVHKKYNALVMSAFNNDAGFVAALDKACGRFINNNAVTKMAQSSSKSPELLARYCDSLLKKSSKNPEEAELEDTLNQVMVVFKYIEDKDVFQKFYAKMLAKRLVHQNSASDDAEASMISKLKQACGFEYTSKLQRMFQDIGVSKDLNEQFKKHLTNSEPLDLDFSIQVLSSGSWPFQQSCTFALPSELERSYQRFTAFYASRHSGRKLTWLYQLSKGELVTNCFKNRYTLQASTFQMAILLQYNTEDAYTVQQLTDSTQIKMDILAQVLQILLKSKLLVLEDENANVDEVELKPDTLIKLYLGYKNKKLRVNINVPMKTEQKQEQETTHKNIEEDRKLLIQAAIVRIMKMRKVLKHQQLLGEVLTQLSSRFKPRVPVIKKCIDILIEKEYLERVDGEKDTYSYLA
T3 sequence (P62877 whole entry partner, one chain of several): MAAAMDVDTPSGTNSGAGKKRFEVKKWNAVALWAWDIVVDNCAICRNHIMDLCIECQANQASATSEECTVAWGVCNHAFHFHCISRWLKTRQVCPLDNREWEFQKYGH
T3 sequence (Q15843 1-76 partner limits assumed, one chain of several): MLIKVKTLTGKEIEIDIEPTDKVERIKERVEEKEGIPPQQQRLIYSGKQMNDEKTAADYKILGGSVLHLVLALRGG
Experimental: HEK293T cells were plated in a 10 cm dish in regular growth media (DMEM + 10% FBS) and allowed to adhere to the plate overnight. The following day, cells were transfected with S33E/S37 β-catenin using FuGeneHD transfection reagent. Transfected cells were then selected with media containing 700 μg/ml Geneticin. A pooled population of selected cells were used for all described experiments.
HEK293T cells expressing S33E/S37A β-catenin were plated in six-well plates at a density of 9 × 10^5 cells/well. The following day, cells were incubated with compounds diluted in regular growth media to the appropriate concentration. The final concentration of DMSO for all cell treatments was kept at 0.5% or less. Cell treatments with the Nedd8 inhibitor (MLN4924) and the proteasome inhibitor (MG132) were performed at a final concentration of 5 μM and 10 μM respectively. Cycloheximide treatment was performed at a final concentration of 100 μg/ml.

[6] = target: T4, endogenous S37A mutant β-catenin (Homo sapiens, UniProt P35222+Q9Y297, S37A); assay: Degradation of endogenous S37A β-catenin in TOV-112D cells; assay type: cell-based
T4 construct: host or cells: TOV-112D
T4 sequence (P35222 whole entry S37A, one chain of several): as the sequence (P35222 whole entry S33E/S37A, one chain of several) above, with E33S counted along it
T4 sequence (P63208 whole entry partner, one chain of several): as the sequence (P63208 whole entry partner, the tested form may be a part) above
T4 sequence (Q13616 whole entry partner, one chain of several): as the sequence (Q13616 whole entry partner, one chain of several) above
T4 sequence (P62877 whole entry partner, one chain of several): as the sequence (P62877 whole entry partner, one chain of several) above
T4 sequence (Q15843 1-76 partner limits assumed, one chain of several): as the sequence (Q15843 1-76 partner limits assumed, one chain of several) above

[7] = target: β-TrCP1 (recombinant β-TrCP/Skp1 complex) (UniProt Q9Y297); assay: TR-FRET peptide titration, no compound; settings: reference: Ser33/S37A peptide; sites S33
[8] = target: β-TrCP1 (recombinant β-TrCP/Skp1 complex) (UniProt Q9Y297); assay: fluorescence polarisation titration; settings: sites S33
[9] = target: β-TrCP1 (recombinant β-TrCP/Skp1 complex) (UniProt Q9Y297); assay: peptide binding assay, type not said; settings: reference: pSer33/pSer37 peptide; sites S37
[10] = target: biotinylated β-TrCP1-avi tag/Skp1 complex (UniProt Q9Y297); assay: FRET or BRET; TR-FRET, no compound: BODIPY-FL β-catenin peptide titrated against 300 pM biotinylated β-TrCP/Skp1 on 1.2 nM terbium-streptavidin; PBS, 0.01% Triton X-100, 2 mM DTT, 2% DMSO; 1 h
[11] = target: T5, pSer33/Ser37 β-catenin:β-TrCP interaction (Homo sapiens, UniProt P35222+Q9Y297); assay: SPR binding enhancement assay
T5 construct: titrating BODIPY-FL-labeled β-catenin peptides (residues 17-48) against 300 pM β-TrCP; 6xHis-SMT3 (N, cleaved yes); made in house; host or cells: E. coli (co-expressed with BirA)
T5 sequence (Q9Y297 1-569 isoform Q9Y297-2, one chain of several): as the sequence (Q9Y297 1-569 isoform Q9Y297-2, stated change not applied) above
T5 sequence (P63208 whole entry partner, one chain of several, the tested form may be a part): as the sequence (P63208 whole entry partner, the tested form may be a part) above
Experimental: SPR binding assays were performed on a GE Healthcare Biacore T200 using a Series B Biacore Sensor Chip SA. […] 333 nM β-TrCP/Skp1 and titrated compound were preincubated and flowed at a rate of 30 μl/min in 10 mM HEPES, 150 mM NaCl, 0.05% Surfactant P20, 1 mM TCEP, and 2% DMSO at pH 7.4 and 20 °C. Engagement of the ternary complex was assessed with a contact and dissociation time of 120 s. […] Errors are standard error of the fit.

[12] = target: T6, pSer33/Ser37 β-catenin peptide binding to β-TrCP (Homo sapiens, UniProt P35222+Q9Y297); assay: TR-FRET peptide binding and cooperativity assay, pSer33/Ser37 peptide; settings: 500 μM NRX-1532; 300 pM β-TrCP; read-out: KD pS33/S37
T6 construct: titrating BODIPY-FL-labeled β-catenin peptides (residues 17-48) against 300 pM β-TrCP; 6xHis-SMT3 (N, cleaved yes); made in house; host or cells: E. coli (co-expressed with BirA)
T6 sequence (Q9Y297 1-569 isoform Q9Y297-2, one chain of several): as the sequence (Q9Y297 1-569 isoform Q9Y297-2, stated change not applied) above
T6 sequence (P63208 whole entry partner, one chain of several, the tested form may be a part): as the sequence (P63208 whole entry partner, the tested form may be a part) above
Experimental: as §1

[13] = pKa determination (fast UV); assay type: physicochemical; settings: methanol:water co-solvent
Experimental: The pKa values were determined using the fast UV (spectrometric) technique. Samples were titrated in triplicate under methanol:water co-solvent conditions (with MeOH:water mixing ratios varied from 1:1 to 1:4) in the pH range 2.0–12.0 at concentrations of 15 to 30 μM and at a temperature of 25 °C. Aqueous pKa values were determined by Yasuda-Shedlovsky extrapolation from the individual determined results.

[14] = target: T7, biotinylated β-TrCP/Skp1 complex (6xHis-SMT3-β-TrCP1-avi tag/Skp1, for TR-FRET) (UniProt Q9Y297-2 1-569; P63208 1-163, biotin on the avi tag (co-expressed with BirA)); assay: AlphaScreen or HTRF; TR-FRET: BODIPY-FL-labeled β-catenin peptides titrated against 300 pM biotinylated β-TrCP/Skp1 on 1.2 nM terbium-coupled streptavidin; PBS, 0.01% Triton X-100, 2 mM DTT, 2% DMSO; 1 h; one-site binding model; no compound; settings: both partners purified
T7 construct: β-TrCP1; Skp1; Held on terbium-coupled streptavidin in the TR-FRET assay; also called β-TrCP complex; source: E. coli, co-expressed from pCDF-Duet1 with BirA and d-biotin, purified (Ni-NTA, ULP1 cleavage, HiTrap SP, SEC); not shown: His6, N-terminal, cleaved; SMT3, N-terminal, cleaved; avi tag, C-terminal, kept
T7 sequence (P63208 whole entry, one chain of several): as the sequence (P63208 whole entry partner, the tested form may be a part) above

β-TrCP = target: T8, β-TrCP (Homo sapiens, UniProt Q9Y297); assay: TR-FRET
T8 chain: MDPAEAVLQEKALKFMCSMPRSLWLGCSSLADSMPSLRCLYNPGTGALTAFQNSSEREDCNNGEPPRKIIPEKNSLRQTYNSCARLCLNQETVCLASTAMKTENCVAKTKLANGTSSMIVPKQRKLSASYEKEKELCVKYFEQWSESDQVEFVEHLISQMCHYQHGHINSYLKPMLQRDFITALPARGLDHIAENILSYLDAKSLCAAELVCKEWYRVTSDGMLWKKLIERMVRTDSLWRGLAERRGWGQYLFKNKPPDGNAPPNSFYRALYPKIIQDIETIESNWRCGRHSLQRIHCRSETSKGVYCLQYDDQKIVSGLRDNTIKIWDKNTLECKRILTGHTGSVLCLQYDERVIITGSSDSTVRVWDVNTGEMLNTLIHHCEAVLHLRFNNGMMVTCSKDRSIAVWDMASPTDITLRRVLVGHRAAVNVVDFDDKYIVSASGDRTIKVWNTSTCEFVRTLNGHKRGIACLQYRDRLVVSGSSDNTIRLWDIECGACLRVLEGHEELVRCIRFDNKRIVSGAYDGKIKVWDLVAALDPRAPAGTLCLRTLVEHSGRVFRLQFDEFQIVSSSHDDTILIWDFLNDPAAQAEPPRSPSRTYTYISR

Molecule: O=C(Nc1cccc(-c2nnn[nH]2)c1)c1ccc(C(F)(F)F)[nH]c1=O [NRX-1933]
- solubility relative to NRX-1532 [1]: more soluble

Molecule: CN(C)C(=O)c1cccc(NC(=O)c2c(Sc3c(Cl)cccc3Cl)cc(C(F)(F)F)[nH]c2=O)c1 [NRX-103095]
- EC50 [2]: 163 ± 6 nM
- EC50 [3]: 6700 ± 700 nM

Molecule: endogenous β-TrCP of HEK293T cells (from UniProt Q9Y297 1-605) (natural protein)
- degradation of stably expressed Myc/FLAG S33E/S37A β-catenin in HEK293T cells, NRX-252114 for 6 h, western blot [4]: 50 µM
- degradation of stably expressed Myc/FLAG S33E/S37A β-catenin in HEK293T cells, NRX-252262 for 6 h, western blot [4]: 35 µM

Molecule: COc1cc2c(cc1OC)CN(C(=O)c1c(Sc3c(Cl)cccc3Cl)cc(C(F)(F)F)[nH]c1=O)C2 [NRX-252262]
- concentration at which degradation of S33E/S37A mutant β-catenin starts ([5]; HEK293T stable line, 6 h, western): ~ 35 μM
- degradation of endogenous S37A mutant β-catenin [6]: did not induce degradation

Molecule: β-catenin 17-48 (from UniProt P35222) pSer33/S37A peptide
- binding against the reference [7]: stronger

Molecule: β-catenin 17-48 (from UniProt P35222) pSer33/Ser37 peptide
- binding against the reference ([8]; reference: non-phosphorylated peptide (Ser33/Ser37)): stronger

Molecule: CC(C)C[C@@H](C=O)NC(=O)[C@H](CC(C)C)NC(=O)[C@H](CC(C)C)NC(=O)OCc1ccccc1 [MG132, reference compound] (Cbz-Leu-Leu-Leu-aldehyde)
- effect of co-treatment on enhancer-induced degradation of S33E/S37A β-catenin [5]: completely blocked

Molecule: NS(=O)(=O)OC[C@@H]1C[C@@H](n2ccc3c(N[C@H]4CCc5ccccc54)ncnc32)C[C@@H]1O [MLN4924, reference compound]
- effect of co-treatment on enhancer-induced degradation of S33E/S37A β-catenin [5]: completely blocked

Molecule: β-catenin (from UniProt P35222) pSer33/S37A peptide
- binding against the reference [9]: weaker

Molecule: BODIPY-FL-labeled S33E/S37A phosphomimetic β-catenin peptide (residues 17-48) (from UniProt P35222 17-48)
- Kd [10]: > 5000 nM
- fold decrease in binding affinity relative to the pSer33/S37A peptide [10]: > 10 fold

Molecule: O=C(Nc1cccc(-c2ccn[nH]2)c1)c1ccc(C(F)(F)F)[nH]c1=O [NRX-1532]
- EC50 [11]: 129000 ± 33000 nM
- Kd [12]: 68 nM
- pKa [13]: 5.6

Molecule: β-catenin 17-48 (from UniProt P35222) Ser33/pSer37 peptide
- KD ([8]; reference: pSer33/pSer37 peptide): weaker; reference 2 nM

B1: BODIPY-FL-labeled pSer33/S37C β-catenin peptide (residues 17-48) (peptide)
peptide: Ac-CDRKAAVSHWQQQSYLD[pS]GIHCGATTTAPSLSG
modifications: cysteine pairing not given here; also: BODIPY-FL label, site not given here
notes: added N-terminal cysteine of the peptide list, not part of β-catenin 17-48; as the printed 17-48 peptide with this change; also called pSer33/Cys37; pS33/S37C
- Kd [14]: 154 nM

B2: BODIPY-FL-labeled pSer33/S37F β-catenin peptide (residues 17-48) (peptide)
peptide: Ac-CDRKAAVSHWQQQSYLD[pS]GIHFGATTTAPSLSG
modifications: also: BODIPY-FL label, site not given here
notes: added N-terminal cysteine of the peptide list, not part of β-catenin 17-48; as the printed 17-48 peptide with this change; also called pSer33/Phe37; pS33/S37F
- Kd [14]: 23 nM

B3: β-catenin peptide (protein)
chain: ATQADLMELDMAMEPDRKAAVSHWQQQSYLDSGIHSGATTTAPSLSGKGNPEEEDVDTSQVLYEWEQGFSQSFTQEQVADIDGQYAMTRAQRVRAAMFPETLDEGMQIPSTQFDAAHPTNVQRLAEPSQMLKHAVVNLINYQDDAELATRAIPELTKLLNDEDQVVVNKAAVMVHQLSKKEASRHAIMRSPQMVSAIVRTMQNTNDVETARCTAGTLHNLSHHREGLLAIFKSGGIPALVKMLGSPVDSVLFYAITTLHNLLLHQEGAKMAVRLAGGLQKMVALLNKTNVKFLAITTDCLQILAYGNQESKLIILASGGPQALVNIMRTYTYEKLLWTTSRVLKVLSVCSSNKPAIVEAGGMQALGLHLTDPSQRLVQNCLWTLRNLSDAATKQEGMEGLLGTLVQLLGSDDINVVTCAAGILSNLTCNNYKNKMMVCQVGGIEALVRTVLRAGDREDITEPAICALRHLTSRHQEAEMAQNAVRLHYGLPVVVKLLHPPSHWPLIKATVGLIRNLALCPANHAPLREQGAIPRLVQLLVRAHQDTQRRTSMGGTQQQFVEGVRMEEIVEGCTGALHILARDVHNRIVIRGLNTIPLFVQLLYSPIENIQRVAAGVLCELAQDKEAAEAIEAEGATAPLTELLHSRNEGVATYAAAVLFRMSEDKPQDYKKRLSVELTSSLFRTEPMAWNETADLGLDIGAQGEPLGYRQDDPSYRSFHSGGYGQDALGMDPMMEHEMGGHHPGADYPVDGLPDLGHAQDLMDGLPPGDSNQLAWFDTDL
modifications: 20 µM NRX-252114
- Kd (β-TrCP): 180 nM
